{"source": "paper PMC6063947", "origin": "cited, not measured here", "target": "Asp61 (UniProt position 61, VMGLVDAIPMI)", "experiment": "NMR"}
{"substance": "ATP synthase subunit c (F0 sector, proteolipid) (Escherichia coli)", "values": [{"measurement": "pKa", "result": 7.1}]}
